Test results taken from paper PMC11245600, “Therapeutic potential of the secreted Kazal-type serine protease inhibitor SPINK4 in colitis” (Nature Communications, 2024).

Molecular target: T1, Fc-tagged extracellular section of EGFR (rEGFR) (human, UniProt P00533 25-645)
T1 construct: EGFR, extracellular section, human-derived; Bought protein; also called rEGFR (extracellular part); recombinant extracellular domain of EGFR; source: bought: Sino Biological
Test: pull-down; 200 ng/mL rSPINK4-His and 1000 ng/mL Fc-tagged extracellular EGFR in 1 mL PBS with protease inhibitors, 4 °C overnight; anti-His or anti-EGFR magnetic beads, IgG control; Western blot
Details: both partners purified

B1: human-derived recombinant SPINK4 protein, His-tagged (rSPINK4-His) (natural protein, UniProt O60575 27-86, looked up)
chain: GKLPFSRMPICEHMVESPTCSQMSNLVCGTDGLTYTNECQLCLARIKTKQDIQIMKDGKC
notes: Bought recombinant protein
- binding result: binds
